{
  "source": "patent US20150212086A1",
  "target": "full-length MDGI (mammary-derived growth inhibitor) expressed from the pcDNA3-9E10 plasmid as a c-Myc fusion protein (mouse) (UniProt P11404)",
  "assay": "phage binding to U2OS cells transiently transfected with MDGI, 2 h at 4 C, bound phage titrated",
  "note": "Where no end group is shown, it is not given here.",
  "data": [
    {"binder": "CGLSGLGVA (peptide, not shown: large carriers, also: displayed on T7 phage capsid protein)", "note": "[CooP displaying phage (phage 36), peptide sequence …]", "values": [
      {"measurement": "fold increase of phage binding compared to the original library", "value": 10, "unit": "fold"}
    ]}
  ]
}
